B1: His-SUMO-MLLE (PABPC1 MLLE domain 544-626 fused with a His-tagged SUMO tag) (domain or fragment, UniProt P11940 544-626, looked up)
chain: PLTASMLASAPPQEQKQMLGERLFPLIQAMHPTLAGKITGMLLEIDNSELLHMLESPESLRSKVDEAVAVLQAHQAKEAAQKA
notes: Fragment 544-626 inserted into pET28SUMO; the tag was kept and used as the handle for Ni-NTA capture; source: E. coli Rosetta II, purified; not shown: His6-SUMO, N-terminal, kept
B2: PABPC1 MLLE (544-626) (domain or fragment, UniProt P11940 544-626, looked up)
chain: B1 chain
notes: also called PABP MLLE; MLLE domain; source: E. coli Rosetta II, purified (glutathione agarose, 3C protease, nickel column, SEC); not shown: GST, N-terminal, cleaved

Key:
Conditions in all cases: both partners purified
[1] = molecular target: T1, LARP4A NTD L15A (human, UniProt Q71RC2 1-287, L15A); experiment: pull-down; His-SUMO-MLLE (200 ug) as bait mixed with 250 ug untagged LARP4A protein on ice, Ni-NTA agarose, washes in 50 mM Tris pH 7.25, 100 mM KCl, 0.2 mM EDTA, 1 mM DTT, 10 mM imidazole, elution with 500 mM imidazole, Coomassie SDS-PAGE
T1 construct: LARP4A (LARP4), human, residues 1-287, PAM2w single mutant; Generated from the NTD by site-directed mutagenesis; used untagged; source: E. coli Rosetta II, purified (His-Trap, tag cleaved, nickel column, heparin or DEAE); not shown: His6, N-terminal, cleaved

[2] = molecular target: T2, LARP4A NTD W22A (human, UniProt Q71RC2 1-287, W22A); experiment: as above
T2 construct: LARP4A (LARP4), human, residues 1-287, PAM2w single mutant; Generated from the NTD by site-directed mutagenesis; used untagged; source: E. coli Rosetta II, purified (His-Trap, tag cleaved, nickel column, heparin or DEAE); not shown: His6, N-terminal, cleaved

[3] = molecular target: T3, LARP4A NTD W22F (human, UniProt Q71RC2 1-287, W22F); experiment: as above
T3 construct: LARP4A (LARP4), human, residues 1-287, PAM2w single mutant; Generated from the NTD by site-directed mutagenesis; used untagged; source: E. coli Rosetta II, purified (His-Trap, tag cleaved, nickel column, heparin or DEAE); not shown: His6, N-terminal, cleaved

[4] = molecular target: T4, LARP4A (1-287), N-terminal domain (human, UniProt Q71RC2 1-287); experiment: as above
T4 construct: LARP4A (LARP4), human, residues 1-287 (NTR 1-111 with PAM2w motif 13-26, plus La module 111-287); The NTD was cloned both with a TEV-cleavable His6 tag (pRSFDuet-1) and with a His6-SUMO tag (pET28SUMO, cut by ULP1); also called NTD; LARP4A NTD; source: E. coli Rosetta II, purified (His-Trap, tag cleaved, nickel column, heparin or DEAE); not shown: His6, N-terminal, cleaved

[5] = molecular target: T4, LARP4A (1-287), N-terminal domain; experiment: native gel or EMSA; competition EMSA: MLLE 12.5-200 uM titrated into a pre-formed complex of 7.5 uM LARP4A NTD and 2 nM 32P-oligoA15; competition constant KC from the fraction of bound RNA

T4 sequence (Q71RC2 1-287): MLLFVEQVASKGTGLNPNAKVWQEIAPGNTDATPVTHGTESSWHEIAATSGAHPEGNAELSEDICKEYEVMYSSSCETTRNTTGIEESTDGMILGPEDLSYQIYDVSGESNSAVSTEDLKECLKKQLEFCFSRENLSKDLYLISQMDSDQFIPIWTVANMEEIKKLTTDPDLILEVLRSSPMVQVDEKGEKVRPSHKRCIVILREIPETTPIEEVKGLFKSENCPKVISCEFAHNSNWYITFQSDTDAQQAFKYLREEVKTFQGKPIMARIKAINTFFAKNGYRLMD
T2 sequence (Q71RC2 1-287 W22A): as the sequence (Q71RC2 1-287) above, with W22A counted along it
T1 sequence (Q71RC2 1-287 L15A): as the sequence (Q71RC2 1-287) above, with L15A counted along it
T3 sequence (Q71RC2 1-287 W22F): as the sequence (Q71RC2 1-287) above, with W22F counted along it

Binder | binding result [1] | binding result [2] | binding result [3] | binding result [4] | binding result [5]
B1 | binds | binds | binds | binds | 
B2 |  |  |  |  | binds

Reference: article PMC6486636, “LARP4A recognizes polyA RNA via a novel binding mechanism mediated by disordered regions and involving the PAM2w motif, revealing interplay between PABP, LARP4A and mRNA” (Nucleic Acids Research, 2019)
